Results taken from paper PMC2430334.

Target: T1, rOxyR (Porphyromonas gingivalis 33277?) (UniProt B2RHP2)
T1 sequence: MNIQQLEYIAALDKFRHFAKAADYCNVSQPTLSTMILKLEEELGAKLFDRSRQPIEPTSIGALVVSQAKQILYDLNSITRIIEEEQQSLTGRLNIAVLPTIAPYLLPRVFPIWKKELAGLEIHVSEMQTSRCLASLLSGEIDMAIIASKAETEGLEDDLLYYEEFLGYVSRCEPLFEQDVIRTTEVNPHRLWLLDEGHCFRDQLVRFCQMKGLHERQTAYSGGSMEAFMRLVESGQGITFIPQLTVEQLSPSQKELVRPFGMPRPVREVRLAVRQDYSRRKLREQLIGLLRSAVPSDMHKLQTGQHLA
Assay: EMSA

## CGTCTTACCGGCTTCCCTATAGCAAAGGAAAGCATTTTTTTCTACTAAAAATTAATTCTAACAATATTCTGCTGTCTTCTACGTGTTTATACGCAGAAAAACGAAAAAAAACCGCACTACTCAATAAAAAAAACGCGATATTGACCCTCGCGAGAG (double strand) [mfa1 promoter region]
  binding: no binding

## CTTTTCGCCCGAAGGTTTTATCTTCCGGCCGGAGCTTTCGGATGAGATCAACTACCTTTTCGTCATGGAATGAATCGGTTTTTACGACCAAGATTCGAACCTTTTTCCGTTCATCATGTTCTTATAATGATTAAAAAGTTGTCGGTGTCGGTTTTACACTGCTCCGATACAAATTATTAAAAGACTTAATTACAATAAAAATCAGACGTT (double strand) [sod promoter region]
  binding: binds
